According to US10640547B2, “Immunotherapy against melanoma and other cancers” (IMMATICS BIOTECHNOLOGIES GMBH, priority 2016, dated 2020):

Biological target: HLA-A*02:01 (Homo sapiens, UniProt P04439, D140Y/D185E/D98H/E176V/E277Q/G131W/G231S/I119V/I121R/I166T/I218V/L300P/L318F/N151K/N90K/P208A/P217A/Q86G/Q94H/R138H/R169H/T345S)
Test: MHC binding assay (UV-ligand exchange, β2m ELISA)
Details: MHC class I binding score; binding to HLA-A*02:01 ranged by peptide exchange yield (UV-ligand exchange, β2m ELISA)
Text: Candidate peptides for T cell based therapies according to the present invention were further tested for their MHC binding capacity (affinity). The individual peptide-MHC complexes were produced by UV-ligand exchange, where a UV-sensitive peptide is cleaved upon UV-irradiation, and exchanged with the peptide of interest as analyzed. Only peptide candidates that can effectively bind and stabilize the peptide-receptive MHC molecules prevent dissociation of the MHC complexes. To determine the yield of the exchange reaction, an ELISA was performed based on the detection of the light chain (β2m) of stabilized MHC complexes. The assay was performed as generally described in Rodenko et al. (Rodenko et al., 2006).
96 well MAXISorp plates (NUNC) were coated over night with 2 ug/ml streptavidin in PBS at room temperature, washed 4× and blocked for 1 h at 37° C. in 2% BSA containing blocking buffer. Refolded HLA-A*02:01/MLA-001 monomers served as standards, covering the range of 15-500 ng/ml. Peptide-MHC monomers of the UV-exchange reaction were diluted 100 fold in blocking buffer. Samples were incubated for 1 h at 37° C., washed four times, incubated with 2 ug/ml HRP conjugated anti-β2m for 1 h at 37° C., washed again and detected with TMB solution that is stopped with […]. Absorption was measured at 450 nm. Candidate peptides that show a high exchange yield (preferably higher than 50%, most preferred higher than 75%) are generally preferred for a generation and production of antibodies or fragments thereof, and/or T cell receptors or fragments thereof, as they show sufficient avidity to the MHC molecules and prevent dissociation of the MHC complexes.

**Q.** “129 (VLPDDLSGV; listed as Homo sapiens) [compound 129]” was tested. Which Peptide exchange did it give?
**A.** +++ (>50 = +++)

**Q.** With “130 (GLVDVLYTA; listed as Homo sapiens) [compound 130]” as the substance, how does the Peptide exchange read?
**A.** +++ (>50 = +++)

**Q.** For “131 (FVDPNGKISL; listed as Homo sapiens) [compound 131]”, which Peptide exchange is on record?
**A.** +++ (>50 = +++)

**Q.** How did the Peptide exchange turn out when “132 (FLDASGAKL; listed as Homo sapiens) [compound 132]” was run?
**A.** ++++ (>75% = ++++)

**Q.** “134 (LLDEVLHTM; listed as Homo sapiens) [compound 134]” was tested. Which Peptide exchange did it give?
**A.** ++++ (>75% = ++++)

**Q.** For “135 (FLDDQETRL; listed as Homo sapiens) [compound 135]”, which Peptide exchange is on record?
**A.** +++ (>50 = +++)

**Q.** With “136 (FAYDGKDYIAL; listed as Homo sapiens) [compound 136]” as the substance, how does the Peptide exchange read?
**A.** +++ (>50 = +++)

**Q.** How did the Peptide exchange turn out when “137 (ILPSNLLTV; listed as Homo sapiens) [compound 137]” was run?
**A.** +++ (>50 = +++)

**Q.** With “138 (YLDKTFYNL; listed as Homo sapiens) [compound 138]” as the substance, how does the Peptide exchange read?
**A.** +++ (>50 = +++)

**Q.** With “139 (AVDATVNQV; listed as Homo sapiens) [compound 139]” as the substance, how does the Peptide exchange read?
**A.** +++ (>50 = +++)

**Q.** How did the Peptide exchange turn out when “140 (RLEAYLARV; listed as Homo sapiens) [compound 140]” was run?
**A.** +++ (>50 = +++)

**Q.** With “141 (YVIDPIKGL; listed as Homo sapiens) [compound 141]” as the substance, how does the Peptide exchange read?
**A.** +++ (>50 = +++)

**Q.** With “142 (FVDGSAIQV; listed as Homo sapiens) [compound 142]” as the substance, how does the Peptide exchange read?
**A.** +++ (>50 = +++)

**Q.** For “143 (ILDDSALYL; listed as Homo sapiens) [compound 143]”, which Peptide exchange is on record?
**A.** ++++ (>75% = ++++)

**Q.** How did the Peptide exchange turn out when “144 (SVDEVEISV; listed as Homo sapiens) [compound 144]” was run?
**A.** +++ (>50 = +++)

**Q.** “145 (TLPNIYVTL; listed as Homo sapiens) [compound 145]” was tested. Which Peptide exchange did it give?
**A.** +++ (>50 = +++)

**Q.** How did the Peptide exchange turn out when “146 (GVGPVPARA; listed as Homo sapiens) [compound 146]” was run?
**A.** +++ (>50 = +++)

**Q.** “147 (ILDDQTNKL; listed as Homo sapiens) [compound 147]” was tested. Which Peptide exchange did it give?
**A.** +++ (>50 = +++)

**Q.** With “148 (TLKDIVQTV; listed as Homo sapiens) [compound 148]” as the substance, how does the Peptide exchange read?
**A.** +++ (>50 = +++)

**Q.** For “149 (YLDTFALKL; listed as Homo sapiens) [compound 149]”, which Peptide exchange is on record?
**A.** ++++ (>75% = ++++)

**Q.** “150 (KLFPSPLQTL; listed as Homo sapiens) [compound 150]” was tested. Which Peptide exchange did it give?
**A.** ++++ (>75% = ++++)

**Q.** Which Peptide exchange does the source give for “151 (FLGEPASYLYL; listed as Homo sapiens) [compound 151]” here?
**A.** ++++ (>75% = ++++)

**Q.** How did the Peptide exchange turn out when “152 (IMEDFTTFL; listed as Homo sapiens) [compound 152]” was run?
**A.** ++++ (>75% = ++++)

**Q.** How did the Peptide exchange turn out when “153 (RLDEVSREL; listed as Homo sapiens) [compound 153]” was run?
**A.** +++ (>50 = +++)

**Q.** “154 (TLGTATFTV; listed as Homo sapiens) [compound 154]” was tested. Which Peptide exchange did it give?
**A.** ++++ (>75% = ++++)

**Q.** How did the Peptide exchange turn out when “156 (ALMDTDGSGKLNL; listed as Homo sapiens) [compound 156]” was run?
**A.** +++ (>50 = +++)

**Q.** Which Peptide exchange does the source give for “157 (HLFETISQA; listed as Homo sapiens) [compound 157]” here?
**A.** +++ (>50 = +++)

**Q.** “158 (KLIPSIIVL; listed as Homo sapiens) [compound 158]” was tested. Which Peptide exchange did it give?
**A.** +++ (>50 = +++)

**Q.** How did the Peptide exchange turn out when “159 (TILATVPLV; listed as Homo sapiens) [compound 159]” was run?
**A.** ++++ (>75% = ++++)

**Q.** How did the Peptide exchange turn out when “160 (ALDDISESI; listed as Homo sapiens) [compound 160]” was run?
**A.** ++++ (>75% = ++++)

**Q.** With “161 (GLCDSIITI; listed as Homo sapiens) [compound 161]” as the substance, how does the Peptide exchange read?
**A.** ++++ (>75% = ++++)

**Q.** “162 (TLDGNPFLV; listed as Homo sapiens) [compound 162]” was tested. Which Peptide exchange did it give?
**A.** +++ (>50 = +++)

**Q.** “163 (RLMANPEALKI; listed as Homo sapiens) [compound 163]” was tested. Which Peptide exchange did it give?
**A.** +++ (>50 = +++)

**Q.** How did the Peptide exchange turn out when “164 (ALFFQLVDV; listed as Homo sapiens) [compound 164]” was run?
**A.** ++ (>20% = ++)

**Q.** Which Peptide exchange does the source give for “165 (ALIEVLQPLI; listed as Homo sapiens) [compound 165]” here?
**A.** ++++ (>75% = ++++)

**Q.** “166 (SIIPPLFTV; listed as Homo sapiens) [compound 166]” was tested. Which Peptide exchange did it give?
**A.** ++++ (>75% = ++++)

**Q.** For “167 (KVLGDVIEV; listed as Homo sapiens) [compound 167]”, which Peptide exchange is on record?
**A.** ++++ (>75% = ++++)

**Q.** “168 (KLLAATLLL; listed as Homo sapiens) [compound 168]” was tested. Which Peptide exchange did it give?
**A.** ++++ (>75% = ++++)

**Q.** For “169 (TLLESIQHV; listed as Homo sapiens) [compound 169]”, which Peptide exchange is on record?
**A.** ++++ (>75% = ++++)

**Q.** With “170 (KLKEAVEAI; listed as Homo sapiens) [compound 170]” as the substance, how does the Peptide exchange read?
**A.** ++ (>20% = ++)

**Q.** Which Peptide exchange does the source give for “171 (KVSGVILSV; listed as Homo sapiens) [compound 171]” here?
**A.** ++++ (>75% = ++++)

**Q.** Which Peptide exchange does the source give for “172 (FLPAGIVAV; listed as Homo sapiens) [compound 172]” here?
**A.** ++++ (>75% = ++++)

**Q.** With “173 (ALDDIIYRA; listed as Homo sapiens) [compound 173]” as the substance, how does the Peptide exchange read?
**A.** +++ (>50 = +++)

**Q.** For “174 (TLLEGLTEL; listed as Homo sapiens) [compound 174]”, which Peptide exchange is on record?
**A.** +++ (>50 = +++)

**Q.** “175 (VLDSVDVRL; listed as Homo sapiens) [compound 175]” was tested. Which Peptide exchange did it give?
**A.** ++++ (>75% = ++++)

**Q.** Which Peptide exchange does the source give for “176 (TLYEQEIEV; listed as Homo sapiens) [compound 176]” here?
**A.** ++++ (>75% = ++++)

**Q.** “177 (ILWDTLLRL; listed as Homo sapiens) [compound 177]” was tested. Which Peptide exchange did it give?
**A.** ++++ (>75% = ++++)

**Q.** With “178 (FAYDGKDYIA; listed as Homo sapiens) [compound 178]” as the substance, how does the Peptide exchange read?
**A.** ++++ (>75% = ++++)

**Q.** “179 (ALDDTVLQV; listed as Homo sapiens) [compound 179]” was tested. Which Peptide exchange did it give?
**A.** +++ (>50 = +++)

**Q.** Which Peptide exchange does the source give for “180 (KLAEALYIA; listed as Homo sapiens) [compound 180]” here?
**A.** +++ (>50 = +++)

**Q.** “181 (GLIDLEANYL; listed as Homo sapiens) [compound 181]” was tested. Which Peptide exchange did it give?
**A.** ++++ (>75% = ++++)

**Q.** How did the Peptide exchange turn out when “182 (SVALVIHNV; listed as Homo sapiens) [compound 182]” was run?
**A.** ++++ (>75% = ++++)

**Q.** “183 (FLDSLIYGA; listed as Homo sapiens) [compound 183]” was tested. Which Peptide exchange did it give?
**A.** ++++ (>75% = ++++)

**Q.** “184 (VLFSSPPVILL; listed as Homo sapiens) [compound 184]” was tested. Which Peptide exchange did it give?
**A.** ++++ (>75% = ++++)

**Q.** For “185 (ILADATAKM; listed as Homo sapiens) [compound 185]”, which Peptide exchange is on record?
**A.** ++++ (>75% = ++++)

**Q.** How did the Peptide exchange turn out when “186 (FLDHEMVFL; listed as Homo sapiens) [compound 186]” was run?
**A.** ++++ (>75% = ++++)

**Q.** “187 (SLPRPTPQA; listed as Homo sapiens) [compound 187]” was tested. Which Peptide exchange did it give?
**A.** +++ (>50 = +++)

**Q.** For “188 (VVVDPIQSV; listed as Homo sapiens) [compound 188]”, which Peptide exchange is on record?
**A.** +++ (>50 = +++)

**Q.** For “193 (ALDEPTTNL; listed as Homo sapiens) [compound 193]”, which Peptide exchange is on record?
**A.** +++ (>50 = +++)

**Q.** Which Peptide exchange does the source give for “194 (TLDDIMAAV; listed as Homo sapiens) [compound 194]” here?
**A.** +++ (>50 = +++)

**Q.** “195 (IAAGIFNDL; listed as Homo sapiens) [compound 195]” was tested. Which Peptide exchange did it give?
**A.** + (>10% = +)

**Q.** Which Peptide exchange does the source give for “196 (ALEPIDITV; listed as Homo sapiens) [compound 196]” here?
**A.** +++ (>50 = +++)

**Q.** Which Peptide exchange does the source give for “197 (ALDSGFNSV; listed as Homo sapiens) [compound 197]” here?
**A.** ++++ (>75% = ++++)

**Q.** For “198 (EVVDKINQV; listed as Homo sapiens) [compound 198]”, which Peptide exchange is on record?
**A.** + (>10% = +)

**Q.** For “199 (AIHTAILTL; listed as Homo sapiens) [compound 199]”, which Peptide exchange is on record?
**A.** ++ (>20% = ++)

**Q.** How did the Peptide exchange turn out when “200 (LLEEINHFL; listed as Homo sapiens) [compound 200]” was run?
**A.** +++ (>50 = +++)

**Q.** “201 (SLIDRTIKM; listed as Homo sapiens) [compound 201]” was tested. Which Peptide exchange did it give?
**A.** +++ (>50 = +++)

**Q.** “202 (RVAFKINSV; listed as Homo sapiens) [compound 202]” was tested. Which Peptide exchange did it give?
**A.** +++ (>50 = +++)

**Q.** “203 (FLNEDISKL; listed as Homo sapiens) [compound 203]” was tested. Which Peptide exchange did it give?
**A.** +++ (>50 = +++)

**Q.** “204 (RMDEEFTKI; listed as Homo sapiens) [compound 204]” was tested. Which Peptide exchange did it give?
**A.** +++ (>50 = +++)

**Q.** With “205 (SLKSKVLSV; listed as Homo sapiens) [compound 205]” as the substance, how does the Peptide exchange read?
**A.** ++++ (>75% = ++++)

**Q.** How did the Peptide exchange turn out when “206 (LLYEDIPDKV; listed as Homo sapiens) [compound 206]” was run?
**A.** +++ (>50 = +++)
